The values below come from patent US20170247677A1.

The target in one series is Factor Va (UniProt P12259).
The next series deals with FXa^V17S (human) (UniProt P00742). Kind of series: cell-based or functional assay.
The target of another series is FXa^I16T (human) (UniProt P00742). Kind of series: cell-based or functional assay.
Another series addresses FXa^I16M (human) (UniProt P00742). Kind of series: cell-based or functional assay.
Series [1] addresses wild-type Factor Xa (human) (UniProt P00742). Briefly: cell-based or functional assay.
Another series addresses FXa^V17M (human) (UniProt P00742). Kind of series: cell-based or functional assay.
The target of another series is FXa^V17T (human) (UniProt P00742). Briefly: cell-based or functional assay.

UniProt P12259, sequence (P12259 29-2224): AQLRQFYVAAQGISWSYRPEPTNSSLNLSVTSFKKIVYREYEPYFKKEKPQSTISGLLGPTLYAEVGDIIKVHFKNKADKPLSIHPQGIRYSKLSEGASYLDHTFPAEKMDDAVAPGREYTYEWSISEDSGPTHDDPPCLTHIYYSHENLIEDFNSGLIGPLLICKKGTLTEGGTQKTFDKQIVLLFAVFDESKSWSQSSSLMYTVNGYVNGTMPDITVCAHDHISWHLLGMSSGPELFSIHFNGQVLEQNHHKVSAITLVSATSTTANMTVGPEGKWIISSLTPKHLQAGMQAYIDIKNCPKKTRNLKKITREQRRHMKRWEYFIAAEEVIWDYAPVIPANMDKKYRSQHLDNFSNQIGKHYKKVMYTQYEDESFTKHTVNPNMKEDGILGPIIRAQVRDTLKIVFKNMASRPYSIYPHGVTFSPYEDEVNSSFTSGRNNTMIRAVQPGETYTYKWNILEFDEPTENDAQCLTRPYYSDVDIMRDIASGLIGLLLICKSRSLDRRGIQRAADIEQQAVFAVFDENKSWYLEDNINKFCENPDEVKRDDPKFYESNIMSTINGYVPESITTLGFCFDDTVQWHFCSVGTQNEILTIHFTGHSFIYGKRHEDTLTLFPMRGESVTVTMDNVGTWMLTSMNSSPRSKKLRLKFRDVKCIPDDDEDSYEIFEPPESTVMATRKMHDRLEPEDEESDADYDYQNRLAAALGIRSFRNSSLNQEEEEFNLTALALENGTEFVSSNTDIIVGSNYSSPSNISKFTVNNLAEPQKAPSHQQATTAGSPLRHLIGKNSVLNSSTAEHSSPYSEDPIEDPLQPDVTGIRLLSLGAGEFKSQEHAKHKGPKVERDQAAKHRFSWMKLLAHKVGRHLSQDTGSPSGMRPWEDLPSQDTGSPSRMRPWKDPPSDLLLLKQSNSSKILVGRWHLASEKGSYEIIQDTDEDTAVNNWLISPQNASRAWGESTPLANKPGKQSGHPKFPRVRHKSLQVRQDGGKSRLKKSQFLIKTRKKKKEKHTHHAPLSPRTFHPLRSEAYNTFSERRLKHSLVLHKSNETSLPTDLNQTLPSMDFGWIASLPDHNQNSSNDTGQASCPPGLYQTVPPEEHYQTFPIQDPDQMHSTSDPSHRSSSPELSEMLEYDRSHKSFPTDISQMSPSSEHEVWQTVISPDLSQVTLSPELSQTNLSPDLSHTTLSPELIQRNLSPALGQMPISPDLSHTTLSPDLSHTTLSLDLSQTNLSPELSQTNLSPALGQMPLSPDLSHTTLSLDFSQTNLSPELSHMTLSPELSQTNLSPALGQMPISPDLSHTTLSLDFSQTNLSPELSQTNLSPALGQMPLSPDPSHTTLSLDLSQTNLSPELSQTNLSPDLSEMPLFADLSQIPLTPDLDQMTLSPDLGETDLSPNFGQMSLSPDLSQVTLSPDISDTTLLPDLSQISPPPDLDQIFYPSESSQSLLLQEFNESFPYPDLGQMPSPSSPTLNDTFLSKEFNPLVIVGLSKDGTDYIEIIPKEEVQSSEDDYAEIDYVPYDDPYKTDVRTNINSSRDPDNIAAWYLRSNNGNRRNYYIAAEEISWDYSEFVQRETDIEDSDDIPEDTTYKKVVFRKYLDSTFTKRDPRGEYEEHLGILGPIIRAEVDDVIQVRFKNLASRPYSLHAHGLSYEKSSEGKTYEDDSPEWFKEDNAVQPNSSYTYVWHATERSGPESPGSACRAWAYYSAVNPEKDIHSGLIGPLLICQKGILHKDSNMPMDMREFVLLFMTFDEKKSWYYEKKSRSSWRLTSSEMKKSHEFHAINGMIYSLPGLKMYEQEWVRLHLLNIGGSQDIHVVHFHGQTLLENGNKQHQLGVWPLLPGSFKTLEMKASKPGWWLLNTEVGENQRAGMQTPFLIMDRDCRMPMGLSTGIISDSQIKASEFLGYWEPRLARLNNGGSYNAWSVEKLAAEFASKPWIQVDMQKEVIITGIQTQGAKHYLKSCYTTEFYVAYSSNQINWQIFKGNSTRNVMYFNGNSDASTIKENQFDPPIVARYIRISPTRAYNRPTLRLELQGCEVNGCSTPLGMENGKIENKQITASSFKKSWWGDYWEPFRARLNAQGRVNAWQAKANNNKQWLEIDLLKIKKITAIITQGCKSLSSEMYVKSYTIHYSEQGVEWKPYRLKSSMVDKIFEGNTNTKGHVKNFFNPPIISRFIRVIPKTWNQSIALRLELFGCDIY

Turning to FXa^I16L, the “kinetics of prothrombin activation in the presence of FVa and anionic membranes (PCPS)” value with Factor Va is given as “demonstrated faster than wild-type kinetics”.
Still for that read-out and setting: next, FXa^I16M: “displayed similar to wild-type kinetics”.
For the substance FXa^V17M, the “kinetics of prothrombin activation in the presence of FVa and anionic membranes (PCPS)” value in the series with Factor Va is “demonstrated faster than wild-type kinetics”.
In the case of “antithrombin III (from UniProt P01008 33-464)”, the Fold Difference (rate constant for inhibition by antithrombin, against wtFXa) was > 100 fold with FXa^V17S (human); > 100 fold in the series with FXa^I16T (human); 40 fold with FXa^I16M (human); 1 fold in series [1]; 14 fold with FXa^V17M (human); 70 fold with FXa^V17T (human).
